The values below come from patent publication US6881545 (Takeda / Millennium, dated 2005).

No end group written: not given here.

This assay addresses T1, human pituitary-derived G protein-coupled receptor protein encoded by phGR3 (hGR3), expressed on CHO-19P2 / … (human, UniProt P49683 1-370).
T1 construct: CHO-19P2-9 is a monoclone of CHO-19P2 selected for a stronger response to 19P2-L31; also called full-length receptor protein; 19P2 receptor
T1 sequence: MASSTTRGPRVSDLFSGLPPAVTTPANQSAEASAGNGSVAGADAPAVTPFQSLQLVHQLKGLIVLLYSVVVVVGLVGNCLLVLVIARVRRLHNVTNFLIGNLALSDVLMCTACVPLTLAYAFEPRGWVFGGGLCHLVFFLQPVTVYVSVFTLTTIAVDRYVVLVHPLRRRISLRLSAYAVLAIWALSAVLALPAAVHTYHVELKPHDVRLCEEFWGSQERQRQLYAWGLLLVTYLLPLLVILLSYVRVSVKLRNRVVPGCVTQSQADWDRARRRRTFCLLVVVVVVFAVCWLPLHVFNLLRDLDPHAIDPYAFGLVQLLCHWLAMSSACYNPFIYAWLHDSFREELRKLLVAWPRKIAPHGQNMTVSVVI
The assay can be described thus: radioligand binding on live CHO-19P2-9 cells, 200 pM tracer, non-specific binding with 200 nM unlabeled 19P2-L31, filtration. From the text: As receptor-expressing CHO cells, CHO-19P2-9; mono-clone of CHO-19P2, CHO-UHR-1, and mock CHO were used in this experiment. CHO-19P2-9 cells are ones selected from CHO-19P2 cells by ultradilution technique using 96-well microplate as clone which indicated stronger arachidonic acid metabolic-release promoting reaction by 19P2-L31. The mock CHO cells are ones for control which were transformed with expression vector pAKKO alone. These cells cultured in flasks for culturing tissues were harvested with 5 mM EDTA/PBS, and then resuspended in HBSS containing 0.05% BSA and 0.05% CHAPS at 0.5 ×10^7 cells/ml. […] The reaction mixture were diluted with 2 ml of an ice-cold beffer (50 mM Tris-HCl pH7.5 containing 5 mM EDTA, 0.05% BSA, and 0.05% CHAPS) and immediately filtered though glass filters GF/F (Whattman) which were pre-wetted with the buffer containing 0.3% polyethylenimine. The glass filters were subjected to γ-counting. Non-specific binding was determined in the presence of 200 nM unlabeled 19P2-L31.

B1: [^125I]-19P2-L31 (19P2-L31 radioiodinated with [^125I]-Bolton-Hunter Reagent) (peptide)
peptide: SRAHQHSMEIRTPDINPAWYAGRGIRPVGRF-NH2
modifications: also: radioiodinated with [125I]-Bolton-Hunter reagent, site not given here
notes: also called radioiodinated 19P2-L31; radioiodinated ligand polypeptide
B1: the binding result is on record as “binds”.
